The target in the assay is T1, Hik2-GST (full-length Histidine kinase 2 of Synechocystis sp. PCC 6803, GST-tagged) (Synechocystis sp. (strain ATCC 27184 / …, UniProt P73276)).
T1 chain: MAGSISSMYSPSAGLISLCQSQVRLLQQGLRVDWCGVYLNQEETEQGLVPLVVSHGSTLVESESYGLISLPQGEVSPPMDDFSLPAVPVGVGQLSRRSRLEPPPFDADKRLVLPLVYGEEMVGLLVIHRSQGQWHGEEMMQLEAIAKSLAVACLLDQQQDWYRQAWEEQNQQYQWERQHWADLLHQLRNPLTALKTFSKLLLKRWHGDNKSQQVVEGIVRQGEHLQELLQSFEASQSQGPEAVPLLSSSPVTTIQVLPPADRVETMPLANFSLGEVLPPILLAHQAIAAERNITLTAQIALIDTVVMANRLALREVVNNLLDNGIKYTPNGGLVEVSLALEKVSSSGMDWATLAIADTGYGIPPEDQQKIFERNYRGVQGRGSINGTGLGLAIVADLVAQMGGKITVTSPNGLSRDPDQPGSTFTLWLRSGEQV
Briefly: GST pull-down.

B1: Rre1_Rec-His6 (receiver domain of Response regulator 1) (protein)
chain: MAEPISLLLVDDEPGVRESVQAFLEDSGDFKVDLAANATEAWDYLQHHLPALVISDIMMPQVDGYQFLQKLREDARFQSLPVVFLTARGMTGDRIQGYQTGCDAFLSKPFDPDELEAIVRNLL
For the molecule B1, the binding result is on record as “binds”.

These data come from paper PMC4751278 (2016).
